# Molecular target: T1, SARS-COV-2病毒N蛋白 (SARS-COV-2, UniProt P0DTC9 1-419)
# T1 construct: also called 新型冠状病毒N蛋白; SARS-COV-2N蛋白
# Assay: ELISA, N protein coated 100 ng/well, supernatant of transfected Expi293F cells
binder,measurement,value
31A8抗体重链31A8mG1 (heavy chain transfected alone) (other) VH: EVQLQQSGPELVKPGASVKISCKTSGYTFTKYTMHWVKQSHGKSLEWIGGINPNNGGNSYNQKFKGKATLTVDKSSSTAYMELRSLTSEDSAVYYCATPDYWGQGTTLTVSS,binding result,no binding

# Reference: patent CN116425870A (UNIV SHAANXI NORMAL, dated 2023)
